Assay [1] deals with T1, extracellular domain of A. thaliana TDR (residues 30-642) (Arabidopsis thaliana, UniProt Q9FII5 30-642, N-glycosylated at N111, N356, N378, N471 and N525 (one GlcNAc visible on each in the structures)).
T1 chain: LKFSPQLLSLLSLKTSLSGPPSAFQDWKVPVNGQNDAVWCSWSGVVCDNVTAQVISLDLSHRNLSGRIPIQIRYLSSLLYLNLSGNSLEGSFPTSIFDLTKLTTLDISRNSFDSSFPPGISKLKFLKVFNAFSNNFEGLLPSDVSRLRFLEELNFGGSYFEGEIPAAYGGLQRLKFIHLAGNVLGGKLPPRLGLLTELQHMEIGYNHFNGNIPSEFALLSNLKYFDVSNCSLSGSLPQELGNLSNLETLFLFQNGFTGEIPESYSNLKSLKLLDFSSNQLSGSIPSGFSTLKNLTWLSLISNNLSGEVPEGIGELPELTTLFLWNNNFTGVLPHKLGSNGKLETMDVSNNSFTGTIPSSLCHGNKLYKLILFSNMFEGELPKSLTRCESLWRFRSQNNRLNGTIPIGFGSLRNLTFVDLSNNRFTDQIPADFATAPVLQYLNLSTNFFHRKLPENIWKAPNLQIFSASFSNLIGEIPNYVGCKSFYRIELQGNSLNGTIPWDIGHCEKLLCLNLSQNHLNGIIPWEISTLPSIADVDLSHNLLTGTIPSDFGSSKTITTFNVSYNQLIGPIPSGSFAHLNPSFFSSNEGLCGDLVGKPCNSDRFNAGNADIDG
Put plainly: ITC. (In general: Isothermal titration calorimetry measures the heat released or taken up as one component is titrated into another.)

The target of assay [2] is T2, extracellular domain of A. thaliana TDR (residues 30-642) (Arabidopsis thaliana, UniProt Q9FII5 30-642, N-glycosylated at N111, N356, N378, N471 and N525 (one GlcNAc visible on each in the structures)).
T2 construct: TDR/PXY (TDIF RECEPTOR / PHLOEM INTERCALATED WITH XYLEM) of A. thaliana, extracellular domain, residues 30-642; the structure models hold residues 40-625; also called ecdTDR; TDR-ECD; source: High Five insect cells (baculovirus), secreted, purified (Ni-NTA, size-exclusion chromatography)
T2 sequence (looked up): T1 chain
Put plainly: crystal structure; ecdTDR 5 mg/ml (42 μM) mixed with 420 μM TDIF, 4°C for 1 hour; crystals at 18°C in 200 mM MgSO4, 20% PEG 3350; 2.75 Å. As to conditions: both partners purified.

Square brackets hold non-standard residues; d marks the D form. Ends that are not written are not given here. Hyp = O=C(O)[C@@H]1C[C@@H](O)CN1

1 molecule from article PMC5383425, “Differential CLE peptide perception by plant receptors implicated from structural and functional analyses of TDIF-TDR interactions” (PLoS ONE, 2017) can be followed below.

B1: Tracheary Element Differentiation Inhibitory Factor (TDIF) peptide (peptide)
peptide: HEV[Hyp]SG[Hyp]NPISN
notes: TDIF, the 12-residue CLE peptide processed from CLE41 and CLE44 of A. thaliana; printed as HEV(Hyp)SG(Hyp)NPISN; numbers count on: the 12-residue peptide; CLE44 encodes the same peptide; also called wild type TDIF; wtTDIF; source: synthetic peptide (peptide 2.0)
The term Kd denotes the equilibrium constant for the complex coming apart. A lower Kd goes with higher affinity. B1 showed a Kd in assay [1] of 103 nM. In addition, the binding result in assay [2] is recorded as “binds”.
